Here are results for 13 sequences from the Immune Epitope Database (IEDB).

The target in assay [1] is HLA-A*02:02. As to the kind of experiment: IEDB peptide-MHC binding, purified MHC/competitive/radioactivity; ≥ and ≤ were set here for values at or beyond the usual limits of such assays. As to conditions: source organism: Human immunodeficiency virus type 1 (isolate YU2).
Assay [2] deals with HLA-A*02:03. The assay is described as above.
Assay [3] concerns the target HLA-A*02:06. Described as above.
Assay [4] deals with HLA-A*02:02. The experiment in a line: IEDB peptide-MHC binding, purified MHC/competitive/radioactivity; filed as Kd, often an IC50 or EC50 that approximates it; ≥ and ≤ were set here for values at or beyond the usual limits of such assays.
Assay [5] deals with HLA-A*02:06. Described as above. As to conditions: source organism: Human immunodeficiency virus type 1 (isolate YU2).
Assay [6] addresses HLA-A*68:02. The experiment in a line: IEDB peptide-MHC binding, purified MHC/competitive/radioactivity; ≥ and ≤ were set here for values at or beyond the usual limits of such assays. As to conditions: source organism: Human immunodeficiency virus type 1 (isolate YU2).
Assay [7] has as its target HLA-A*68:02. The experiment in a line: IEDB peptide-MHC binding, purified MHC/competitive/radioactivity; filed as Kd, often an IC50 or EC50 that approximates it; ≥ and ≤ were set here for values at or beyond the usual limits of such assays.
Assay [8] concerns the target HLA-A*02:03. The assay is described as above. As to conditions: source organism: Human immunodeficiency virus type 1 (isolate YU2).
Setting [9] is: source organism: Human immunodeficiency virus type 1 (isolate YU2).
The mark [10] stands for this setting: source organism: Human immunodeficiency virus 1.

As usually defined, the IC50 is the concentration that gives 50% inhibition. In the case of VLAEAMSQV, the values for the IC50 with HLA-A*02:02 [1], with HLA-A*02:03 [2] (setting [9]) and with HLA-A*02:06 [3] (setting [9]) were 82.7 nM, 15.2 nM and 116 nM, respectively.

The term Kd denotes the constant that tells how readily two partners part at equilibrium. Regarding MTNNPPIPV, the Kd stood at 7170 nM in the assay with HLA-A*02:02 [4] (setting [9]) and 1610 nM with HLA-A*02:06 [5]. Moreover, the results for the IC50 in the assay with HLA-A*02:03 [2] (setting [9]) and with HLA-A*68:02 [6] were 33.3 nM and 12.1 nM, respectively.

Regarding RILQQLLFI, the dissociation constant (Kd) came to 1540 nM in the assay with HLA-A*02:02 [4] (setting [9]) and 1820 nM in the assay with HLA-A*68:02 [7] (setting [9]). Further, the IC50 worked out at 125 nM in the assay with HLA-A*02:03 [2] (setting [9]) and 37 nM with HLA-A*02:06 [3] (setting [9]).

With ILKEPVHGV, the Kd in the assay with HLA-A*02:06 [5] was ≥ 37000 nM.

As to KMIGGIGGFI, in the assay with HLA-A*68:02 [7] (setting [9]), the Kd amounted to 3330 nM. The values for the IC50 with HLA-A*02:02 [1], with HLA-A*02:03 [2] (setting [9]) and with HLA-A*02:06 [3] (setting [9]) were 54.4 nM, 4.8 nM and 771 nM, respectively.

Consider MASDFNLPPV, for which the IC50 with HLA-A*02:02 [1] stood at 22.6 nM; with HLA-A*02:03 [2] (setting [9]), 55.6 nM; with HLA-A*02:06 [3] (setting [9]), 33.6 nM; with HLA-A*68:02 [6], 18.2 nM.

On to LVGPTPVNI, for which, in the assay with HLA-A*02:06 [5], the dissociation constant Kd was determined as 2850 nM. The IC50 was determined as 154 nM with HLA-A*02:02 [1], 19.2 nM in the assay with HLA-A*02:03 [2] (setting [9]) and 67.8 nM with HLA-A*68:02 [6].

AIIRILQQL: the IC50 in the assay with HLA-A*02:02 [1] came to 22.6 nM; with HLA-A*02:03 [2] (setting [9]), 41.7 nM; in the assay with HLA-A*02:06 [3] (setting [9]), 38.5 nM; in the assay with HLA-A*68:02 [6], 548 nM.

Consider LTFGWCFKL, for which the Kd in the assay with HLA-A*02:03 [8] is 4550 nM. Moreover, the IC50 turned out to be 33.1 nM with HLA-A*02:02 [1], 206 nM with HLA-A*02:06 [3] (setting [9]) and 5.6 nM with HLA-A*68:02 [6].

As for LTFGWCFKLV, the values for the IC50 with HLA-A*02:02 [1], with HLA-A*02:03 [2] (setting [9]) and with HLA-A*68:02 [6] were 48.9 nM, 185 nM and 6.2 nM, respectively.

With LLQLTVWGI, the half-maximal inhibitory concentration (IC50) in the assay with HLA-A*02:02 [1] was found to be 215 nM; with HLA-A*02:03 [2] (setting [9]) it was 43.5 nM; with HLA-A*02:06 [3] (setting [9]), 24.7 nM; with HLA-A*68:02 [6], 645 nM.

Take SLLNATDIAV: the Kd with HLA-A*02:02 [4] (setting [10]) turned out to be 1300 nM; with HLA-A*68:02 [7] (setting [10]) it was 5480 nM. Further, the results for the IC50 with HLA-A*02:03 [2] (setting [10]) and with HLA-A*02:06 [3] (setting [10]) were 238 nM and 28.5 nM, respectively.

As to KAACWWAGI, the Kd in the assay with HLA-A*02:02 [4] (setting [9]) worked out at 1080 nM. The IC50 with HLA-A*02:03 [2] (setting [9]) was 83.3 nM; in the assay with HLA-A*02:06 [3] (setting [9]) it was 161 nM.
